Assay results as given in publication PMC9402538, “Rational design of a sensitivity-enhanced tracer for discovering efficient APC–Asef inhibitors” (Nature Communications, 2022).
Primed or numbered codes have the meaning given here. [ ]: non-standard residue; d: D form. The star is where a group is joined. FITC = O=C1OC2(c3ccc(O)cc3Oc3cc(O)ccc32)c2ccc(NC(=S)*)cc21; Phe(4-tBu) = CC(C)(C)c1ccc(C[C@H](N)C(=O)O)cc1; Bpa = N[C@@H](Cc1ccc(C(=O)c2ccccc2)cc1)C(=O)O; Ala(cPent) = N[C@@H](CC1CCCC1)C(=O)O; FITC′ = fluorescein isothiocyanate; hLeu = CC(C)CC[C@H](N)C(=O)O; 2Furoyl = O=C(c1ccco1)*; Cbz = O=C(OCc1ccccc1)*; Bz = O=C(c1ccccc1)*

Assays:
Conditions in all cases: both partners purified
[1] = molecular target: T1, APC (303-739) (UniProt P25054 303-739); test: fluorescence polarisation; direct binding: tracer fixed at 20 nM, range of concentrations of APC (303-739), read after 1.5 h; EC50 by nonlinear regression
T1 construct: adenomatous polyposis coli (APC), residues 303-739; pET28a construct; also called APC WT; adenomatous polyposis coli; source: E. coli BL21 (DE3), purified (Ni-NTA)
T1 sequence (looked up): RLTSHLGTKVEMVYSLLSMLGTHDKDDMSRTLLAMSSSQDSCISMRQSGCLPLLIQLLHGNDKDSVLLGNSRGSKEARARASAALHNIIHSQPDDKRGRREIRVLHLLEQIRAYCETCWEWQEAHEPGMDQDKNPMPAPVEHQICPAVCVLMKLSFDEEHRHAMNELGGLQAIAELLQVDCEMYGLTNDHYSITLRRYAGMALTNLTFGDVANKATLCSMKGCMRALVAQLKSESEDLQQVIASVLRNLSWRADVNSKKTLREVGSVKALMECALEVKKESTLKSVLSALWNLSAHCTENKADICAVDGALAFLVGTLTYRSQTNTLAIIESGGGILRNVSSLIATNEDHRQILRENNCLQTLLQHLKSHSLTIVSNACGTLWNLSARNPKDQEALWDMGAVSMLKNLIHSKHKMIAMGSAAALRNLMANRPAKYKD

[2] = molecular target: T1, APC (303-739); test: fluorescence polarisation; competition with tracer 7: 25 nM APC (303-739), serial dilution of peptide, 20 nM tracer 7; 50 mM HEPES pH 7.5, 300 mM NaCl, 1 mM EDTA, 1 mM DTT; room temperature
[3] = molecular target: T1, APC (303-739); test: fluorescence polarisation; competition with tracer 1: APC (303-739) 1.0 μM and tracer 1 20 nM (Table 2), serial dilution of peptide
[4] = molecular target: T1, APC (303-739); test: ITC; APC protein in the cell at 10-20 μM, peptide injected at 100-200 μM; 50 mM HEPES pH 7.5, 300 mM NaCl, 1 mM EDTA; 30 °C; single-site model
[5] = molecular target: T2, APC (303–739) (UniProt P25054 303-739); test: fluorescence polarisation; direct binding: tracer fixed at 20 nM, a range of concentrations of APC (303–739), read after 1.5 h; EC50 by nonlinear regression
T2 construct: adenomatous polyposis coli (APC), residues 303–739; The methods name this construct for FP and SPR; the ITC methods say only 'APC protein'; Plasmid was a gift (Dr. Geng Wu); pET28a; also called APC WT; adenomatous polyposis coli; source: E. coli BL21 (DE3), purified (Ni-NTA)
T2 sequence (looked up): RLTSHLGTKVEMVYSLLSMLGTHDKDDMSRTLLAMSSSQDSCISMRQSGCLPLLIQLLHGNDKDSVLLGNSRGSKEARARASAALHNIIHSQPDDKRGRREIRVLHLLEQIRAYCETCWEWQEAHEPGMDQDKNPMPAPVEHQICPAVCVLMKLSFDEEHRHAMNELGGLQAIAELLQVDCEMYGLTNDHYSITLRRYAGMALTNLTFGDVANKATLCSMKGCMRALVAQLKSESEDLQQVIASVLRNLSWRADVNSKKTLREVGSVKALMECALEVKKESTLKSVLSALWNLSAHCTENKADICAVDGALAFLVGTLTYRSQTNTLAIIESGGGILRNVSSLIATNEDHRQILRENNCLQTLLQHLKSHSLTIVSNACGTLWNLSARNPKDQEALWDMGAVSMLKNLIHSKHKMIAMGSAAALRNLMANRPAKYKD

[6] = molecular target: T2, APC (303–739); test: ITC; MicroCal ITC200, 30 °C; 50 mM HEPES pH 7.5, 300 mM NaCl, 1 mM EDTA; APC in the cell at 10–20 μM, peptide injected at 100–200 μM; single-site model
[7] = molecular target: T3, MAI-516 (N-terminal 4-methoxy-phenyl group (R^1)); test: as above
T3 construct: peptidomimetic; the text names its residues A181, G182, E183, S184, L185 and Y186 (Asef numbering); source: synthetic peptide (Supplementary Methods)

B1: tracer 8 (peptide)
peptide: Cbz-AGESLYENELISK(FITC′)-NH2
notes: source: synthetic peptide (general procedure B; FITC-labeled tracer peptides obtained from Changzhou Kanglong Biotech)
Q: How did the EC50 [1] turn out when B1 was run?
A: 41 nM

B2: MAI-426 (peptide)
chain: Cbz-AGES[hLeu]YE-NH2
Q: Which IC50 [2] does the source give for B2 here?
A: 1200 ± 60 nM

Q: And the IC50 [3]?
A: 840 ± 190 nM

B3: MAI-451 (peptide)
chain: {morpholine‑4‑carbonyl}-AGESLYE-NH2
Q: What does the source list for B3?
A: IC50 [2]: 270 ± 5 nM; IC50 [3]: 390 ± 120 nM

B4: tracer 9 (peptide)
peptide: Cbz-AGESLYENELK(FITC′)-NH2
notes: as for B1
Q: How did the EC50 [1] turn out when B4 was run?
A: 47 nM

B5: MAI-453 (peptide)
chain: {benzofuran‑2‑carbonyl}-AGESLYE-NH2
Q: For B5, which IC50 [2] is on record?
A: 260 ± 10 nM

Q: What about the IC50 [3] of the same binder?
A: 460 ± 140 nM

B6: MAI-454 (peptide)
chain: {furan‑2‑carbonyl}-AGESLY[Bpa]-NH2
Q: With B6 as the binder, how does the IC50 [2] read?
A: 280 ± 10 nM

Q: And the IC50 [3]?
A: 480 ± 150 nM

B7: MAI-455 (peptide)
chain: {oxazole‑2‑carbonyl}-AGESLYE-NH2
Q: Which IC50 [2] does the source give for B7 here?
A: 860 ± 30 nM

Q: And the IC50 [3]?
A: 530 ± 120 nM

B8: MAI-456 (peptide)
chain: {2‑(methylthio)pyrimidine‑4‑carbonyl}-AGESLYE-NH2
Q: B8 was tested. Which IC50 [2] did it give?
A: 990 ± 60 nM

Q: What about the IC50 [3] of the same binder?
A: 570 ± 120 nM

B9: tracer 10 (peptide)
peptide: Cbz-AGESLYENK(FITC′)-NH2
notes: as for B1
Q: With B9 as the binder, how does the EC50 [1] read?
A: 52 nM

B10: tracer 14 (peptide)
peptide: Cbz-AGESLYEGK(FITC′)-NH2
notes: as for B1
Q: For B10, which EC50 [1] is on record?
A: 50 nM

B11: MAI-457 (peptide)
chain: Bz-AGESLY[Bpa]-NH2
SMILES: CC(C)C[C@H](NC(=O)[C@H](CO)NC(=O)[C@H](CCC(=O)O)NC(=O)CNC(=O)[C@H](C)NC(=O)c1ccccc1)C(=O)N[C@@H](Cc1ccc(O)cc1)C(=O)N[C@@H](Cc1ccc(C(=O)c2ccccc2)cc1)C(N)=O
Q: For B11, which IC50 [2] is on record?
A: 92 ± 3 nM

Q: What about the IC50 [3] of the same binder?
A: 590 ± 200 nM

B12: MAI-459 (peptide)
chain: {2‑chloropyrimidine‑4‑carbonyl}-AGESLYE-NH2
Q: For B12, which IC50 [2] is on record?
A: 840 ± 30 nM

Q: What about the IC50 [3] of the same binder?
A: 600 ± 120 nM

B13: MAI-460 (peptide)
chain: {oxazole‑5‑carbonyl}-AGESLYE-NH2
Q: What does the source list for B13?
A: IC50 [2]: 550 ± 9 nM; IC50 [3]: 620 ± 190 nM

B14: MAI-461 (peptide)
chain: Bz-AGES[Ala(cPent)]YE-NH2
SMILES: C[C@H](NC(=O)c1ccccc1)C(=O)NCC(=O)N[C@@H](CCC(=O)O)C(=O)N[C@@H](CO)C(=O)N[C@@H](CC1CCCC1)C(=O)N[C@@H](Cc1ccc(O)cc1)C(=O)N[C@@H](CCC(=O)O)C(N)=O
Q: Which IC50 [2] does the source give for B14 here?
A: 80 ± 3 nM

Q: What about the IC50 [3] of the same binder?
A: 630 ± 200 nM

B15: tracer 11 (peptide)
peptide: Cbz-AGESLYEGGGGGGGK(FITC′)-NH2
notes: as for B1
Q: Which EC50 [1] does the source give for B15 here?
A: 53 nM

B16: MAI-464 (peptide)
chain: {pyrimidine‑4‑carbonyl}-AGESLYE-NH2
Q: What does the source list for B16?
A: IC50 [2]: 220 ± 10 nM; IC50 [3]: 740 ± 160 nM

B17: MAI-465 (peptide)
chain: Bz-AGESLY[dE]-NH2
Q: What does the source list for B17?
A: IC50 [2]: 1000 ± 30 nM; IC50 [3]: 750 ± 150 nM

B18: MAI-466 (peptide)
chain: 2Furoyl-AGESLY[Phe(4-tBu)]-NH2
SMILES: CC(C)C[C@H](NC(=O)[C@H](CO)NC(=O)[C@H](CCC(=O)O)NC(=O)CNC(=O)[C@H](C)NC(=O)c1ccco1)C(=O)N[C@@H](Cc1ccc(O)cc1)C(=O)N[C@@H](Cc1ccc(C(C)(C)C)cc1)C(N)=O
Q: With B18 as the binder, how does the IC50 [2] read?
A: 940 ± 30 nM

Q: And the IC50 [3]?
A: 810 ± 200 nM

B19: tracer 12 (peptide)
peptide: Cbz-AGESLYEGGGGGK(FITC′)-NH2
notes: as for B1
Q: For B19, which EC50 [1] is on record?
A: 51 nM

B20: MAI-467 (peptide)
chain: Bz-AGESLYE-NH2
Q: What does the source list for B20?
A: IC50 [2]: 320 ± 7 nM; IC50 [3]: 820 ± 300 nM

B21: tracer 13 (peptide)
peptide: Cbz-AGESLYEGGGK(FITC′)-NH2
notes: as for B1
Q: With B21 as the binder, how does the EC50 [1] read?
A: 48 nM

B22: tracer 7 (peptide)
peptide: Cbz-AGESLYEK(FITC)-NH2
notes: designed from the Asef hot spot 181-187; the systematic name on D1:p12 gives (R) at the lysine carbon; source: synthetic peptide (general procedure B; FITC-labeled tracer peptides obtained from Changzhou Kanglong Biotech)
Q: B22 was tested. Which “stoichiometry N” value [4] did it give?
A: 1.6

B23: tracer 1 (Ac–GGGGEQLAINELISDGK[FITC]–NH2) (peptide)
peptide: Ac-GGGGEQLAINELISDGK(FITC)-NH2
notes: stretch of Asef (Rho guanine nucleotide exchange factor 4); lysine that carries FITC; source: synthetic peptide, bought: Changzhou Kanglong Biotech Ltd
Q: Which results are given for B23?
A: EC50 [5]: 540 nM; Kd [6]: 580 nM

B24: tracer 2 (Ac–GGAGEALAINELISDGK[FITC]–NH2) (peptide)
peptide: Ac-GGAGEALAINELISDGK(FITC′)-NH2
notes: designed from tracer 1 (Asef stretch) by changing residues of the hot spot GGEQLAI; source: synthetic peptide, bought: Changzhou Kanglong Biotech Ltd
Q: How did the EC50 [5] turn out when B24 was run?
A: 180 nM

B25: tracer 3 (Ac–GGAGESLYENELISDGK[FITC]–NH2) (peptide)
peptide: Ac-GGAGESLYENELISDGK(FITC′)-NH2
notes: as for B24
Q: Which EC50 [5] does the source give for B25 here?
A: 68 nM

B26: tracer 4 (Ac–YGAGESLYENELISDGK[FITC]–NH2) (peptide)
peptide: Ac-YGAGESLYENELISDGK(FITC′)-NH2
notes: tracer 3 with its first residue replaced; source: synthetic peptide, bought: Changzhou Kanglong Biotech Ltd
Q: How did the EC50 [5] turn out when B26 was run?
A: 48 nM

B27: tracer 5 (Ac–EGAGESLYENELISDGK[FITC]–NH2) (peptide)
peptide: Ac-EGAGESLYENELISDGK(FITC′)-NH2
notes: as for B26
Q: Which EC50 [5] does the source give for B27 here?
A: 46 nM

B28: APC W593A, N641A (domain or fragment)
chain: RLTSHLGTKVEMVYSLLSMLGTHDKDDMSRTLLAMSSSQDSCISMRQSGCLPLLIQLLHGNDKDSVLLGNSRGSKEARARASAALHNIIHSQPDDKRGRREIRVLHLLEQIRAYCETCWEWQEAHEPGMDQDKNPMPAPVEHQICPAVCVLMKLSFDEEHRHAMNELGGLQAIAELLQVDCEMYGLTNDHYSITLRRYAGMALTNLTFGDVANKATLCSMKGCMRALVAQLKSESEDLQQVIASVLRNLSWRADVNSKKTLREVGSVKALMECALEVKKESTLKSVLSALANLSAHCTENKADICAVDGALAFLVGTLTYRSQTNTLAIIESGGGILRAVSSLIATNEDHRQILRENNCLQTLLQHLKSHSLTIVSNACGTLWNLSARNPKDQEALWDMGAVSMLKNLIHSKHKMIAMGSAAALRNLMANRPAKYKD
Q: How did the Kd [7] turn out when B28 was run?
A: 860 nM

B29: tracer 6 (Z–AGESLYENELISDGK[FITC]–NH2) (peptide)
peptide: Cbz-AGESLYENELISDGK(FITC′)-NH2
notes: tracer 3 with its first two residues GG replaced by a benzyloxycarbonyl (Z) group; source: synthetic peptide, bought: Changzhou Kanglong Biotech Ltd
Q: With B29 as the binder, how does the EC50 [5] read?
A: 40 nM

B30: tracer 7 (Z–AGESLYEK[FITC]–NH2) (peptide)
peptide: Cbz-AGESLYEK(FITC)-NH2
notes: tracer 6 with a shortened linker; source: synthetic peptide, bought: Changzhou Kanglong Biotech Ltd
Q: What does the source list for B30?
A: EC50 [5]: 16 nM; Kd [6]: 78 nM
